Measured values reported in publication PMC3829478.

Biological target: Frizzled-7 receptor, endogenous (rat (endogenous in fetal rat brain growth cone particles and hippocampal neurons))

percent of hippocampal neurons with an identifiable Tau-1 containing axon (stage 3) after 20 h with 1.35 nM Wnt3a: > 55%
Substance: Wingless-type family member 3A (recombinant mouse Wnt3a) (from UniProt P27467 19-352) (ligand)
